From article PMC6201590, “Fibronectin type III domain-containing protein 5 interacts with APP and decreases amyloid β production in Alzheimer’s disease” (Molecular Brain, 2018)

Molecular target: full-length APP770 tagged with V5 (UniProt P05067-1 18-770)
Experiment: cell-based or functional assay

Sequence of full-length APP770 tagged with V5 (P05067 18-770): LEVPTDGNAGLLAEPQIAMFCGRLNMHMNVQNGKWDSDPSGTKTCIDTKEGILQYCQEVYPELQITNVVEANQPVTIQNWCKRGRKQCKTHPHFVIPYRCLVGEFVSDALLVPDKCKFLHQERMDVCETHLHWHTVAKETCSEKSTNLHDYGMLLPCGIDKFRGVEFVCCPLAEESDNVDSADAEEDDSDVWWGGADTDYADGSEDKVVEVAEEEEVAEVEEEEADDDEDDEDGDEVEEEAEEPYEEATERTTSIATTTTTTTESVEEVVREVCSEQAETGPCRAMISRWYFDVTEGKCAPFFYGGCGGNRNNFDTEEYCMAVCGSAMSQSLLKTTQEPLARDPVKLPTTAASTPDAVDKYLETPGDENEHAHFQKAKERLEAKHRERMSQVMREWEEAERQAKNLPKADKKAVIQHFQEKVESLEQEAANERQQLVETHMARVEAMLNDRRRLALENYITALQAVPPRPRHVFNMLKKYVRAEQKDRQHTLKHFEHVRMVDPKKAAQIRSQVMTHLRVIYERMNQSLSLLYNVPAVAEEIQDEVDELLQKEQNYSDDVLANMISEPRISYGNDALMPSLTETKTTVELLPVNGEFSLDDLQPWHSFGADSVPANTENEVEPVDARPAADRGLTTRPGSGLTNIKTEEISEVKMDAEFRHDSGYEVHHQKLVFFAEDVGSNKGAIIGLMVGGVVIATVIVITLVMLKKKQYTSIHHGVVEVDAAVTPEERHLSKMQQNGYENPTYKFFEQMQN

Aβ40 and Aβ42 secreted into the medium (ELISA) of HEK293 cells transfected with APP770-V5 and FNDC5-HA, with Aβ1–16 peptide treatment against without it: ~1.4 fold
B1: Fibronectin type III domain-containing protein 5 tagged with HA at the C-terminus (natural protein, mouse, UniProt Q8K4Z2 60-240, looked up)
chain: DSPSAPVNVTVRHLKANSAVVSWDVLEDEVVIGFAISQQKKDVRMLRFIQEVNTTTRSCALWDLEEDTEYIVHVQAISIQGQSPASEPVLFKTPREAEKMASKNKDEVTMKEMGRNQQLRTGEVLIIVVVLFMWAGVIALFCRQYDIIKDNEPNNNKEKTKSASETSTPEHQGGGLLRSKI
